In article PMC3268394 (The Journal of Biological Chemistry, 2011):

B1: His-tagged UBP domain of USP5 (171–290) (domain or fragment)
chain: GEVRQVSKHAFSLKQLDNPARIPPCGWKCSKCDMRENLWLNLTDGSILCGRRYFDGSGGNNHAVEHYRETGYPLAVKLGTITPDGADVYSYDEDDMVLDPSLAEHLSHFGIDMLKMQKTD

Legend:
ubiquitin = ubiquitin (UniProt P0CG48 1-76); test: pull-down
[1] = molecular target: T1, HDAC6 ZnF-UBP domain (1109–1215), His tag cleaved (UniProt Q9UBN7 1109-1215); test: crystal structure
T1 sequence: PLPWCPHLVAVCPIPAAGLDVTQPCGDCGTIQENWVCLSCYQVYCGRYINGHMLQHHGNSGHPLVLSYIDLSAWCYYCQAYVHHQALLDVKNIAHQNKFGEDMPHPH

Row | binding result (ubiquitin) | binding result [1] | Binder
1 | binds |  | B1
2 |  | binds | RLRGG [ubiquitin C-terminal pentapeptide RLRGG]
